Measurements as given in patent US20240133885A1 (UNIVERSITY OF SOUTHERN CALIFORNIA, published 2024).
Where two headings read alike, the source gives them in different places.

Assays:
CD19 [1] = molecular target: T1, CD19 (human, UniProt P15391 20-556); experiment: Luc assay, supernatant on BC1 cells
T1 construct: whole, on cells; Endogenous antigen of the cell lines tested (RAJI stated CD19 positive); also called human CD19

CD19 [2] = molecular target: T1, CD19; experiment: Luc assay, supernatant on RAJI cells
CD19 [3] = molecular target: T1, CD19; experiment: Luc assay, supernatant on BC-3 cells
CD19 [4] = molecular target: T1, CD19; experiment: Luc assay, supernatant on MM1S cells
CD19 [5] = molecular target: T1, CD19; experiment: Luc assay, supernatant on U266 cells
CD19 [6] = molecular target: T1, CD19; experiment: Luc assay, supernatant on BV173 cells
CD19 [7] = molecular target: T1, CD19; experiment: Luc assay, supernatant on JSC-1 cells
CD19 [8] = molecular target: T1, CD19; experiment: Luc assay, supernatant on BCBL-1 cells
[9] = molecular target: T2, FMC63-(vL-vH)-Myc-BBz-T2A-Pac; experiment: NLuc assay, supernatant on CAR T cells
T2 construct: Entry = whole construct incl; T2A-Pac; also called FMC63-CAR; CD19 (FMC63)-CAR

[10] = molecular target: T3, Luc90-(vL-vH)-MYC-CD28z-T2A-Pac; experiment: NLuc assay, supernatant on transfected 293FT cells
T3 construct: Entry = whole construct incl; T2A-Pac; also called SLAMF7/CS1-specific CAR; 031915-F03

[11] = molecular target: T4, CD324-SC10-6-(vL-vH)-MYC-BBz-T2A-PAC; experiment: NLuc assay, supernatant on transfected 293FT cells
T4 construct: Entry = whole construct incl; T2A-PAC; also called CDH1/CD324-specific CAR; 052516-B07

[12] = molecular target: T5, CD324-hSC10-17-(vL-vH)-MYC-BBz-T2A-PAC; experiment: NLuc assay, supernatant on transfected 293FT cells
T5 construct: Entry = whole construct incl; T2A-PAC; also called CDH1/CD324-specific CAR; 052516-A07

[13] = molecular target: T6, CD200R-huDx182-(vL-vH)-Myc-BBz-T2A-PAC; experiment: NLuc assay, supernatant on transfected 293FT cells
T6 construct: Entry = whole construct incl; T2A-PAC; also called CD200R-specific CAR

[14] = molecular target: T7, J6MO-(vL-vH)-MYC-28z-T2A-Pac; experiment: NLuc assay, supernatant on NK92MI cells expressing the CAR
T7 construct: CAR on NK92MI cells; Entry = whole construct incl; T2A-Pac; also called BCMA-specific CAR; 031915-G02

[15] = molecular target: T3, Luc90-(vL-vH)-MYC-CD28z-T2A-Pac; experiment: NLuc assay, supernatant on 293FT cells transfected with the CAR
[16] = molecular target: T2, FMC63-(vL-vH)-Myc-BBz-T2A-Pac; experiment: as above
[17] = molecular target: T4, CD324-SC10-6-(vL-vH)-MYC-BBz-T2A-PAC; experiment: as above
[18] = molecular target: T5, CD324-hSC10-17-(vL-vH)-MYC-BBz-T2A-PAC; experiment: as above
[19] = molecular target: T2, FMC63-(vL-vH)-Myc-BBz-T2A-Pac; experiment: as above; remark: listed apart in the source
CD19 [20] = molecular target: T1, CD19; experiment: Luc assay, supernatant on HL60 cells (stated CD19-, CD20-, CD33+)
CD19 [21] = molecular target: T1, CD19; experiment: Luc assay, supernatant on Raji cells (stated CD19+, CD20+, CD33-)

B1: CD8SP-CD19-4G7-(vL-vH)-GGSG-NLuc-4xFLAG-x2STREP-8xHis-T2A-PAC (scFv)
scFv: not shown
notes: Entry = whole insert incl. signal peptide and T2A-PAC; also called 062916-C08
- Mean Luc activity (CD19 [1]): 52300
- Mean Luc activity (CD19 [2]): 397000
- Luc activity (CD19 [3]): 6180
- Luc activity (CD19 [4]): 10400
- Luc activity (CD19 [5]): 6540
- Luc activity (CD19 [6]): 121000
- Luc activity (CD19 [7]): 13300
- Luc activity (CD19 [8]): 14000

B2: FLAG-CD19-ECD-GGSG-NLuc-AcV5 (receptor)
chain: not shown
notes: Entry = whole insert incl; CD19 signal peptide, FLAG tag, linker, NLuc, AcV5; also called CD19-GGSG-NLuc-AcV5
- fold NLuc value over uninfected or control CAR cells [9]: > 85 fold
- binding result [10]: no binding
- binding result [11]: no binding
- binding result [12]: no binding
- binding result [13]: no binding
- binding result [14]: no binding
- Mean Luc activity [15]: 3830
- Mean Luc activity [16]: 237000
- Mean Luc activity [17]: 16400
- Mean Luc activity [18]: 5190
- Mean Luc activity [19]: 237000

B3: SLAMF7-CS1-ECD-GGSG-NLuc-4xFlag-2xStreptag-8xHis-T2A-Pac (receptor)
chain: not shown
notes: Entry = whole insert incl; T2A-Pac; also called 062816-A01
- Mean Luc activity [15]: 100000

B4: CDH1-ECD-GGSG-NLuc-4xFlag-2xStreptag-8xHis-T2A-Pac (receptor)
chain: not shown
notes: Entry = whole insert incl; T2A-Pac; also called 062816-G02
- Mean Luc activity [17]: 2.9e+06
- Mean Luc activity [18]: 2.02e+06

B5: CD8SP-hCD19-Bu12-(vL-vH)-GGSG-NLuc-AcV5 (scFv)
scFv: not shown
notes: Entry = whole insert incl. signal peptide; also called 021417-T05
- Mean Luc activity (CD19 [20]): 1610
- Mean Luc activity (CD19 [21]): 358000

B6: CD8SP-CD19-4G7-Mlu-GSG-NLuc-AcV5 (scFv)
scFv: not shown
notes: Entry = whole insert incl. signal peptide; also called 021417-Z04
- Mean Luc activity (CD19 [20]): 4320
- Mean Luc activity (CD19 [21]): 380000
